T1: hCEACAM5, human CEACAM5 ECD (35-685) (human, UniProt P06731 35-685)
T1 construct: produced in HEK293; also called human CEACAM5 protein; human CEACAM5 extracellular domain
T1 sequence: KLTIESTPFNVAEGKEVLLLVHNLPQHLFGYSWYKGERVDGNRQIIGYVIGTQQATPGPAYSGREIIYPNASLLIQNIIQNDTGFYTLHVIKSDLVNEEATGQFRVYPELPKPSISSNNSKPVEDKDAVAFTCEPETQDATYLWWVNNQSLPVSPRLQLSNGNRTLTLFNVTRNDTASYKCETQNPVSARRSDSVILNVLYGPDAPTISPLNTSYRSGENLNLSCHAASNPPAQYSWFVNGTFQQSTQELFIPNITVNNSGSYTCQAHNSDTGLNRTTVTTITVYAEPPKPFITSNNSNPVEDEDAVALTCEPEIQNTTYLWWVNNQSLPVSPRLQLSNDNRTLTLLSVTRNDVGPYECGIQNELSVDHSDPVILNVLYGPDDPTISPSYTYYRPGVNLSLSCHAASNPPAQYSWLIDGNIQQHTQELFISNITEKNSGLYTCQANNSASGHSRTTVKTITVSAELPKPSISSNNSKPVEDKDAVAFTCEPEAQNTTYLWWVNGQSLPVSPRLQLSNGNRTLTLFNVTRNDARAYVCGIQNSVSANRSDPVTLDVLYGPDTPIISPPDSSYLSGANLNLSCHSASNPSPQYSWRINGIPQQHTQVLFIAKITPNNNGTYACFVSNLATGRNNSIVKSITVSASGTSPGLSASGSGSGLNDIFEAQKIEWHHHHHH

T2: cCEACAM5, M. fascicularis CEACAM5 ECD (35-688) (Macaca fascicularis)
T2 construct: ECD followed by a 24 amino acid extension containing a His-Tag; also called cynomolgus CEACAM5; monkey CEACAM5
T2 chain: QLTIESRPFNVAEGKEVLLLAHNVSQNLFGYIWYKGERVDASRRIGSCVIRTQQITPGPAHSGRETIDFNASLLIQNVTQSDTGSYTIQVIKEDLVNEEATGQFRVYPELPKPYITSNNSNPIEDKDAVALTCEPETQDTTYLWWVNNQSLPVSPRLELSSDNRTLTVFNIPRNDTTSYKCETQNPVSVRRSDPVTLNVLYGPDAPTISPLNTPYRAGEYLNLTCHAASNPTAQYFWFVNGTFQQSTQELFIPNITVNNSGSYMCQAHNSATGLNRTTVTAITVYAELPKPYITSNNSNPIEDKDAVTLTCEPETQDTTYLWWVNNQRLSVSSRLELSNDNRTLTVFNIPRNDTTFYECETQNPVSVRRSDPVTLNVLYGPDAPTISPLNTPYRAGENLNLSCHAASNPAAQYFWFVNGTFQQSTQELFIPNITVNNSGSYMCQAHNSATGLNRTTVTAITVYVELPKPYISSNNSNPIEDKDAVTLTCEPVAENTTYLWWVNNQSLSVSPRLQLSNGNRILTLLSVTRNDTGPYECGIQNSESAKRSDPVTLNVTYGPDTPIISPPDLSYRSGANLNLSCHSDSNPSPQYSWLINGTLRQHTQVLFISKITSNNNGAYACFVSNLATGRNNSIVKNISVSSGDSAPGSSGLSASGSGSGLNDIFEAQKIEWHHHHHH

T3: human CEACAM5 expressed on the surface of tumor cells (human, UniProt P06731 35-685)
T3 sequence: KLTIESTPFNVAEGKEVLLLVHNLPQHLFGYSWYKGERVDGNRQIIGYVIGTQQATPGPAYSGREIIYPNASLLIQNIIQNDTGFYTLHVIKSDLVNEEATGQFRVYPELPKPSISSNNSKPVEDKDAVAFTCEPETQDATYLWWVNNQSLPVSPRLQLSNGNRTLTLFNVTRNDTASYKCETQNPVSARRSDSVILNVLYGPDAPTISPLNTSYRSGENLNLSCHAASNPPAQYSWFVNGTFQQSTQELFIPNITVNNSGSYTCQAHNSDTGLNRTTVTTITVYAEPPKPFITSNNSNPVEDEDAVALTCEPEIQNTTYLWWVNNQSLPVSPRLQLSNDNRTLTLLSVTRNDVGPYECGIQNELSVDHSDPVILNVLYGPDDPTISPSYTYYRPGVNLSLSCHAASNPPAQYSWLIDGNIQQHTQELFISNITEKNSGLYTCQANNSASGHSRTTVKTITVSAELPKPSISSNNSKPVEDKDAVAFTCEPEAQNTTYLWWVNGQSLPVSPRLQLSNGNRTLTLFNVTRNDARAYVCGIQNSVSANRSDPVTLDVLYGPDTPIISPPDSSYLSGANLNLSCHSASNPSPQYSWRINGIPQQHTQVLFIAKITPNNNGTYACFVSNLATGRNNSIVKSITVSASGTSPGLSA


Assays:
[1] = target: T1, hCEACAM5, human CEACAM5 ECD (35-685); test: ELISA, chimeric mAb
[2] = target: T2, cCEACAM5, M. fascicularis CEACAM5 ECD …; test: ELISA, chimeric mAb
[3] = target: T3, human CEACAM5 expressed on the surface …; test: cell-based or functional assay
[4] = target: T1, hCEACAM5, human CEACAM5 ECD (35-685); test: ELISA, coated CEACAM5
Protocol: (§1) All CEACAM5-specific mAbs were assessed for their ability to bind human and primate CEACAM5 protein by ELISA. Plates were coated with human or primate CEACAM5 protein, anti-hCEACAM5 mAbs were added to the plate and detected with rabbit anti-mouse IgG conjugated with horseradish peroxidase (Sigma; # A9044). The antibody binding was visualized by adding TMB-H2O2 buffer and read at a wavelength of 450 nm.

[5] = target: T2, cCEACAM5, M. fascicularis CEACAM5 ECD …; test: ELISA, coated CEACAM5
Protocol: as §1

[6] = target: T3, human CEACAM5 expressed on the surface …; test: flow cytometry on CR-IGR-034P primary colon tumor cells
Protocol: (§2) Advanced human primary colon tumor CR-IGR-034P (Julien et al., Clin Cancer Res Oct. 1, 2012 18:5314-5328) was obtained from Patient-derived xenograft in mice. Tumor CR-IGR-034P was enzymatically dissociated using collagenase Type IV (Invitrogen; #17104-019) and deoxyribonuclease I (Invitrogen; #18047-019) for 1 h at […], Cell viability was estimated by Viacount application using Guava® easyCyte™ 8HT Flow Cytometry System. […] 100 μL/well of goat anti-mouse IgG conjugated with Alexa647 (Invitrogen; # A2135) or goat anti-human IgG conjugated with Alexa488 (Invitrogen; # A11013) was added for 45 min at 4° C. and washed three times with PBS 1% BSA. The antibody binding was evaluated after centrifugation and resuspension of cells by adding 200 pliwell PBS 1% BSA and read using Guava® easyCyte™ 8HT Flow Cytometry System. Apparent KD and EC50 values were estimated using BIOST@T-BINDING and BIOST@T-SPEED softwares, respectively.

[7] = target: T3, human CEACAM5 expressed on the surface …; test: apparent KD, flow cytometry on CR-IGR-034P primary colon tumor cells
Protocol: as §2

EC50 [1] | EC50 [2] | Binder | Cytotoxic activity IC50 (nM) on MKN45 cells [3] | further results
0.11 nM | 0.15 nM | chMab2K52R (antibody, human IgG1, kappa, V domains shown, Chimeric MAb2 with K52R in CDR2-L) VH: EVQLQESGGVLVKPGGSLKLSCAASGFVFSSYDMSWVRQTPEKRLEWVAYISSGGGITYFPDTVQGRFTVSRDNAKNTLYLQMNSLKSEDTAIYYCAAHYFGSSGPFAYWGQGTLVTVSA VL: DIQMTQSPASLSASVGETVTITCRASENIFSYLAWYQQKQGKSPQLLVYNTRTLAEGVPSRFSGSGSGTQFSLKINSLQPEDFGSYYCQHHYGTPFTFGSGTKLEIKR |  | 
0.14 nM | 0.12 nM | chMAb4 (antibody, human IgG1, kappa, V domains shown, Chimeric, human IgG1 / Ckappa) VH: EVQLVESGGGLVKPGGSLKLSCAASGFTFSSYDMSWVRQTPEKRLEWVAFISSYGGRTYYADTVKGRFTISRDNAKNTLYLQMSSLKSEDTAMFYCAAHYFGTSGPFAYWGQGTLVTVSA VL: DIQMTQSPASLSASVGETVTITCRASENIYSYFAWYQQKQGKSPQLLVYNAKILAEGVPSRFSGSGSGTQFSLKINSLQPEDFGTYYCQHHYGIPFTFGSGTKLELKR |  | 
 |  | MAb1-SPDB-DM4 (other, maytansinoid DM4 conjugated through SPDB linker; attachment residues not stated) VH: EVMLVESGGGLVKPGGSLKLSCAASGFTFSSYAMSWVRQTPEKRLEWVATISSGGSYIYYLDSVKGRFTISRDNAKNTLYLQMSSLRSEDTAMYYCARPAYYGNPAMDYWGQGTSVTVSS VL: DILMTQSQKFMSTSVGDRVSVTCKASQNVGTNVAWYQQKPGQSPKPLIYSASYRYSGVPDRFTGSGSGTDFTLTISNVQSEDLAEYFCQQYNSYPLYTFGGGTKLEIK | 0.89 nM | 
0.51 nM | 1.57 nM | chMAb1 (antibody, human IgG1, kappa, V domains shown, Chimeric, human IgG1 / Ckappa) VH: EVMLVESGGGLVKPGGSLKLSCAASGFTFSSYAMSWVRQTPEKRLEWVATISSGGSYIYYLDSVKGRFTISRDNAKNTLYLQMSSLRSEDTAMYYCARPAYYGNPAMDYWGQGTSVTVSS VL: DILMTQSQKFMSTSVGDRVSVTCKASQNVGTNVAWYQQKPGQSPKPLIYSASYRYSGVPDRFTGSGSGTDFTLTISNVQSEDLAEYFCQQYNSYPLYTFGGGTKLEIKR |  | 
 |  | MAb3-SPDB-DM4 (other, maytansinoid DM4 conjugated through SPDB linker; attachment residues not stated) VH: EVKLVESGGGLVKPGGSLTLPCAASGFTFSRYAMSWVRQTPEKRLEWVASISSGGDTYYPDSVKGRFTVSRDNARNILFLQMSSLRSEDTGMYYCARVNYYDSSFLDWWGQGTTLTVSS VL: DIVMTQSQRFMSTLEGDRVSVTCKASQNVGTNVAWYQQKPGQSPKALIYSASYRYSGVPDRFTGSGSGTDFTLTISNVQSEDLAEYFCQQYNNYPLYTFGGGTKLEIK | 0.53 nM | 
 |  | MAb5-SPDB-DM4 (other, maytansinoid DM4 conjugated through SPDB linker; attachment residues not stated) VH: ELQLVESGGVLVKPGGSLKLSCAASGFAFSSYDMSWVRQTPEKRLEWVTYINSGGGITYYPDTVKGRFTISRDNARNTLYLQMSSLKSEDTAIYYCTAHYFGSSGPFAYWGQGTLVTVSA VL: DIQMTQSPASLSASVGETVTITCRASENIYSYLAWYQQKQGKSPQLLVYNAKTLTEGVPSRFSGSGSGTQFSLKINSLQPEDFGSYYCQHHYGTPFTFGSGTKLEIK | 0.24 nM | 
 |  | MAb2-SPDB-DM4 (other, maytansinoid DM4 conjugated through SPDB linker; attachment residues not stated) VH: EVQLQESGGVLVKPGGSLKLSCAASGFVFSSYDMSWVRQTPEKRLEWVAYISSGGGITYFPDTVQGRFTVSRDNAKNTLYLQMNSLKSEDTAIYYCAAHYFGSSGPFAYWGQGTLVTVSA VL: DIQMTQSPASLSASVGETVTITCRASENIFSYLAWYQQKQGKSPQLLVYNTKTLAEGVPSRFSGSGSGTQFSLKINSLQPEDFGSYYCQHHYGTPFTFGSGTKLEIK | 0.14 nM | 
 |  | MAb4-SPDB-DM4 (other, maytansinoid DM4 conjugated through SPDB linker; attachment residues not stated) VH: EVQLVESGGGLVKPGGSLKLSCAASGFTFSSYDMSWVRQTPEKRLEWVAFISSYGGRTYYADTVKGRFTISRDNAKNTLYLQMSSLKSEDTAMFYCAAHYFGTSGPFAYWGQGTLVTVSA VL: DIQMTQSPASLSASVGETVTITCRASENIYSYFAWYQQKQGKSPQLLVYNAKILAEGVPSRFSGSGSGTQFSLKINSLQPEDFGTYYCQHHYGIPFTFGSGTKLELK | 0.96 nM | 
0.18 nM | 0.13 nM | chMAb5 (antibody, human IgG1, kappa, V domains shown, Chimeric, human IgG1 / Ckappa) VH: ELQLVESGGVLVKPGGSLKLSCAASGFAFSSYDMSWVRQTPEKRLEWVTYINSGGGITYYPDTVKGRFTISRDNARNTLYLQMSSLKSEDTAIYYCTAHYFGSSGPFAYWGQGTLVTVSA VL: DIQMTQSPASLSASVGETVTITCRASENIYSYLAWYQQKQGKSPQLLVYNAKTLTEGVPSRFSGSGSGTQFSLKINSLQPEDFGSYYCQHHYGTPFTFGSGTKLEIKR |  | 
 |  | antibody MAb2 (antibody, mouse IgG1, V domains shown, Murine IgG1, kappa; Rows are tied to the label as printed) VH: EVQLQESGGVLVKPGGSLKLSCAASGFVFSSYDMSWVRQTPEKRLEWVAYISSGGGITYFPDTVQGRFTVSRDNAKNTLYLQMNSLKSEDTAIYYCAAHYFGSSGPFAYWGQGTLVTVSA VL: DIQMTQSPASLSASVGETVTITCRASENIFSYLAWYQQKQGKSPQLLVYNTKTLAEGVPSRFSGSGSGTQFSLKINSLQPEDFGSYYCQHHYGTPFTFGSGTKLEIK |  | EC50 [4]: 0.14 nM; EC50 [5]: 0.07 nM; Ratio c/h (EC50 on cCEACAM5 against EC50 on hCEACAM5) [5]: 0.5; EC50 [6]: 0.53 nM; Kd [7]: 0.38 nM

From patent US20220340682A1 (Sanofi, published 2022)
